Experiments:
Assay in all cases: cell-based or functional assay
[1] = molecular target: TSHR with Asp151 mutated to Ala, expressed in CHO cells (human) (UniProt P16473)
[2] = molecular target: wild type TSHR (human TSH receptor, full length) expressed in CHO cells (human) (UniProt P16473)
wild type TSHR (human) = wild type TSHR (human) (UniProt P16473)
[3] = molecular target: TSHR with Asp203 mutated to Ala expressed in CHO cells (human) (UniProt P16473)
[4] = molecular target: TSHR with Gln235 mutated to Ala expressed in CHO cells (human) (UniProt P16473)
[5] = molecular target: TSHR with Lys129 mutated to Ala, expressed in CHO cells (human) (UniProt P16473)
[6] = molecular target: TSHR with Arg109 mutated to Ala, expressed in CHO cells (human) (UniProt P16473)

With TSH (ligand) the % inhibition of TSH stimulation, mutated TSHR; TSH (2) (run at the end of assay) [1] was 9%, the Mutated/Wild type (%) of cyclic AMP produced, TSH 0.01 ng/mL [1] was 209% and the Mutated/Wild type (%) of cyclic AMP produced, TSH 0.03 ng/mL [1] was 149%. For the same substance, the Mutated/Wild type (%) of cyclic AMP produced, TSH 0.1 ng/mL [1] was 99%, the Mutated/Wild type (%) of cyclic AMP produced, TSH 0.3 ng/mL [1] was 80% and the Mutated/Wild type (%) of cyclic AMP produced, TSH 1 ng/mL [1] was 66%. For the same substance, the Mutated/wild type (%) of cyclic AMP produced; TSH 3 ng/mL [1] was 68%, the Mutated/wild type (%) of cyclic AMP produced; test sample: TSH (3 ng/mL) [1] was 62% and the Mutated/wild type (%) of cyclic AMP produced; test sample: TSH (2) (3 ng/mL, run at the end of assay) [1] was 44%. The % inhibition of TSH stimulation; TSH (2) control [2] was 0%, the % inhibition of TSH stimulation; TSH (2) control; Experiment 1 [2] was 0.1% and the % inhibition of TSH stimulation; TSH (2) control; Experiment 2 [2] was 0%. The Cyclic AMP produced (pmol/mL), TSH 0.01 ng/mL, Experiment 1 [2] was 4.36 pmol/mL, the Cyclic AMP produced (pmol/mL), TSH 0.01 ng/mL, Experiment 2 [2] was 2.21 pmol/mL and the Cyclic AMP produced (pmol/mL), TSH 0.01 ng/mL, Experiment 3 [2] was 5.19 pmol/mL. It also gave a Cyclic AMP produced (pmol/mL), TSH 0.03 ng/mL, Experiment 1 [2] of 9.19 pmol/mL, a Cyclic AMP produced (pmol/mL), TSH 0.03 ng/mL, Experiment 2 [2] of 3.61 pmol/mL and a Cyclic AMP produced (pmol/mL), TSH 0.03 ng/mL, Experiment 3 [2] of 9.82 pmol/mL. For the same substance, the Cyclic AMP produced (pmol/mL), TSH 0.1 ng/mL, Experiment 1 [2] was 26.9 pmol/mL, the Cyclic AMP produced (pmol/mL), TSH 0.1 ng/mL, Experiment 2 [2] was 7.86 pmol/mL and the Cyclic AMP produced (pmol/mL), TSH 0.1 ng/mL, Experiment 3 (duplicate determination) [2] was 25 pmol/mL. It also gave a Cyclic AMP produced (pmol/mL), TSH 0.3 ng/mL, Experiment 1 [2] of 42 pmol/mL, a Cyclic AMP produced (pmol/mL), TSH 0.3 ng/mL, Experiment 2 [2] of 27.1 pmol/mL and a Cyclic AMP produced (pmol/mL), TSH 0.3 ng/mL, Experiment 3 [2] of 91.7 pmol/mL. It also gave a Cyclic AMP produced (pmol/mL), TSH 1 ng/mL, Experiment 1 [2] of 60.1 pmol/mL, a Cyclic AMP produced (pmol/mL), TSH 1 ng/mL, Experiment 2 [2] of 54.2 pmol/mL and a Cyclic AMP produced (pmol/mL), TSH 1 ng/mL, Experiment 3 [2] of 192 pmol/mL. It also gave a Cyclic AMP produced (pmol/mL), TSH 3 ng/mL, Experiment 1 [2] of 61.3 pmol/mL, a Cyclic AMP produced (pmol/mL), TSH 3 ng/mL, Experiment 2 [2] of 58.1 pmol/mL and a Cyclic AMP produced (pmol/mL), TSH 3 ng/mL, Experiment 3 [2] of 226 pmol/mL. It also gave a Cyclic AMP produced; TSH 3 ng/mL [2] of 50 pmol/mL, a Cyclic AMP produced; TSH 3 ng/mL; Experiment 1 [2] of 67.7 pmol/mL and a Cyclic AMP produced; TSH 3 ng/mL; Experiment 2 [2] of 60.7 pmol/mL. It also gave a Cyclic AMP produced; TSH (2) [2] of 53.1 pmol/mL, a Cyclic AMP produced; TSH (2); Experiment 1 [2] of 67.5 pmol/mL and a Cyclic AMP produced; TSH (2); Experiment 2 [2] of 67.8 pmol/mL. It also gave a % inhibition of TSH stimulation, TSH (2) run at the end of assay, wild type TSHR (wild type TSHR (human)) of 0%, a Cyclic AMP produced (mean of duplicate), TSH 3 ng/mL (wild type TSHR (human)) of 88 pmol/mL and a Cyclic AMP produced (pmol/mL), TSH 3 ng/mL, wild type TSHR (wild type TSHR (human)) of 101 pmol/mL. For the same substance, the Cyclic AMP produced (pmol/mL), TSH (2) 3 ng/mL run at the end of assay, wild type TSHR (wild type TSHR (human)) was 131 pmol/mL, the Cyclic AMP produced, TSH 0.01 ng/mL, Experiment 1 (wild type TSHR (human)) was 1.22 pmol/mL and the Cyclic AMP produced, TSH 0.01 ng/mL, Experiment 2 (wild type TSHR (human)) was 2.02 pmol/mL. For the same substance, the Cyclic AMP produced, TSH 0.03 ng/mL, Experiment 1 (wild type TSHR (human)) was 1.85 pmol/mL, the Cyclic AMP produced, TSH 0.03 ng/mL, Experiment 2 (wild type TSHR (human)) was 1.96 pmol/mL and the Cyclic AMP produced, TSH 0.1 ng/mL, Experiment 1 (wild type TSHR (human)) was 4.89 pmol/mL. It also gave a Cyclic AMP produced, TSH 0.1 ng/mL, Experiment 2 (wild type TSHR (human)) of 4.49 pmol/mL, a Cyclic AMP produced, TSH 0.3 ng/mL, Experiment 1 (wild type TSHR (human)) of 17.4 pmol/mL and a Cyclic AMP produced, TSH 0.3 ng/mL, Experiment 2 (wild type TSHR (human)) of 13.5 pmol/mL. It also gave a Cyclic AMP produced, TSH 1 ng/mL, Experiment 1 (wild type TSHR (human)) of 52.9 pmol/mL, a Cyclic AMP produced, TSH 1 ng/mL, Experiment 2 (wild type TSHR (human)) of 43.2 pmol/mL and a Cyclic AMP produced; TSH 3 ng/mL; Experiment 1 (wild type TSHR (human)) of 70.6 pmol/mL. It also gave a Cyclic AMP produced; TSH 3 ng/mL; Experiment 2 (wild type TSHR (human)) of 84.8 pmol/mL, a Cyclic AMP produced (pmol/mL), 0.01 ng/mL TSH [3] of 5.3 pmol/mL and a Cyclic AMP produced (pmol/mL), 0.03 ng/mL TSH [3] of 7.13 pmol/mL. It also gave a Cyclic AMP produced (pmol/mL), 0.1 ng/mL TSH [3] of 13 pmol/mL, a Cyclic AMP produced (pmol/mL), 0.3 ng/mL TSH [3] of 33.8 pmol/mL and a Cyclic AMP produced (pmol/mL), 1 ng/mL TSH [3] of 58.6 pmol/mL. For the same substance, the Cyclic AMP produced (pmol/mL), 3 ng/mL TSH [3] was 69.3 pmol/mL, the Mutated/Wild type (%) of cyclic AMP produced, 0.01 ng/mL TSH [3] was 231% and the Mutated/Wild type (%) of cyclic AMP produced, 0.03 ng/mL TSH [3] was 200%. For the same substance, the Mutated/Wild type (%) of cyclic AMP produced, 0.1 ng/mL TSH [3] was 154%, the Mutated/Wild type (%) of cyclic AMP produced, 0.3 ng/mL TSH [3] was 128% and the Mutated/Wild type (%) of cyclic AMP produced, 1 ng/mL TSH [3] was 89%. For the same substance, the Mutated/Wild type (%) of cyclic AMP produced, 3 ng/mL TSH [3] was 90%, the Cyclic AMP produced, TSH 0.01 ng/mL, Experiment 1 [4] was 1.75 pmol/mL and the Cyclic AMP produced, TSH 0.01 ng/mL, Experiment 2 [4] was 3.42 pmol/mL. For the same substance, the Cyclic AMP produced, TSH 0.03 ng/mL, Experiment 1 [4] was 2.89 pmol/mL, the Cyclic AMP produced, TSH 0.03 ng/mL, Experiment 2 [4] was 4.55 pmol/mL and the Cyclic AMP produced, TSH 0.1 ng/mL, Experiment 1 [4] was 5.97 pmol/mL. It also gave a Cyclic AMP produced, TSH 0.1 ng/mL, Experiment 2 [4] of 7.77 pmol/mL, a Cyclic AMP produced, TSH 0.3 ng/mL, Experiment 1 [4] of 17.6 pmol/mL and a Cyclic AMP produced, TSH 0.3 ng/mL, Experiment 2 [4] of 17.1 pmol/mL. The Cyclic AMP produced, TSH 1 ng/mL, Experiment 1 [4] was 44.2 pmol/mL, the Cyclic AMP produced, TSH 1 ng/mL, Experiment 2 [4] was 31.7 pmol/mL and the Cyclic AMP produced; TSH 3 ng/mL; Experiment 1 [4] was 46.6 pmol/mL. It also gave a Cyclic AMP produced; TSH 3 ng/mL; Experiment 2 [4] of 37.1 pmol/mL, an Experiment 1: % inhibition of TSH stimulation; TSH (2), run at the end of assay [4] of 13% and an Experiment 1: Mutated/wild type (%) of cyclic AMP produced; TSH 3 ng/mL [4] of 70%. The Experiment 1: Mutated/wild type (%) of cyclic AMP produced; TSH (2) 3 ng/mL, run at the end of assay [4] was 61%, the Experiment 2: % inhibition of TSH stimulation; TSH (2), run at the end of assay [4] was 3% and the Experiment 2: Mutated/wild type (%) of cyclic AMP produced; TSH 3 ng/mL [4] was 100%. The Experiment 2: Mutated/wild type (%) of cyclic AMP produced; TSH (2) 3 ng/mL, run at the end of assay [4] was 71%, the Mutated/Wild type (%) of cyclic AMP produced, TSH 0.01 ng/mL, Experiment 1 [4] was 161% and the Mutated/Wild type (%) of cyclic AMP produced, TSH 0.01 ng/mL, Experiment 2 [4] was 177%. It also gave a Mutated/Wild type (%) of cyclic AMP produced, TSH 0.03 ng/mL, Experiment 1 [4] of 125%, a Mutated/Wild type (%) of cyclic AMP produced, TSH 0.03 ng/mL, Experiment 2 [4] of 165% and a Mutated/Wild type (%) of cyclic AMP produced, TSH 0.1 ng/mL, Experiment 1 [4] of 91%. The Mutated/Wild type (%) of cyclic AMP produced, TSH 0.1 ng/mL, Experiment 2 [4] was 107%, the Mutated/Wild type (%) of cyclic AMP produced, TSH 0.3 ng/mL, Experiment 1 [4] was 67% and the Mutated/Wild type (%) of cyclic AMP produced, TSH 0.3 ng/mL, Experiment 2 [4] was 68%. It also gave a Mutated/Wild type (%) of cyclic AMP produced, TSH 1 ng/mL, Experiment 1 [4] of 65%, a Mutated/Wild type (%) of cyclic AMP produced, TSH 1 ng/mL, Experiment 2 [4] of 62% and a Mutated/wild type (%) of cyclic AMP produced; TSH 3 ng/mL; Experiment 1 [4] of 56%. The Mutated/wild type (%) of cyclic AMP produced; TSH 3 ng/mL; Experiment 2 [4] was 53%, the % inhibition of TSH stimulation; TSH (2) control [5] was 3% and the Cyclic AMP produced; TSH 3 ng/mL [5] was 49.2 pmol/mL. For the same substance, the Cyclic AMP produced; TSH (2) [5] was 47.9 pmol/mL, the Mutated/wild type (%) of cyclic AMP produced; TSH 3 ng/mL [5] was 98% and the Mutated/wild type (%) of cyclic AMP produced; TSH (2) [5] was 90%. The % inhibition of TSH stimulation; TSH (2) control; Experiment 1 [6] was 0%.

From US20110300138A1 (published 2011)
